Results published in patent US20140243255A1.

Target: Mtb ClpP1P2 protease complex (one heptameric ClpP1 ring and one heptameric ClpP2 ring) (Mycobacterium tuberculosis) (UniProt P0A527)

**Q.** Z-Leu-leucinal (peptide) was tested. Which Kd did it give?
**A.** 240 µM

**Q.** How did the Kd turn out when Z-Leu-Leu (peptide) was run?
**A.** 2200 µM
